Measured values published in patent US20210403549A1 (YALE UNIVERSITY, published 2021).
fluorescein = fluorescein (fluorescent label)

Columns and labels:
[1] = target: T1, low density lipoprotein (LDL) (UniProt P04114 28-4563); experiment: SPR, LDL immobilized, Fc-tagged ectodomain as analyte; LDLR ectodomain as analyte
T1 construct: Lipoprotein particle, not a pure protein; also called DiI-LDL (fluorescently labeled)
Description: To directly examine protein-protein interactions between LDL and ALK1, surface plasmon resonance (SPR) was used with LDL immobilized to the chip and purified fragments of the Fc-tagged ectodomains for LDLR and ALK1 as analytes. […] To test if LDLR and ALK1 compete for binding to LDL, immobilized LDL was pre-bound with ALK1 or LDLR ectodomains, followed by the addition of the other ectodomain. The binding of […] was not altered when the LDL surface was pretreated with ALK1^ecto (FIG. 2C) or if LDL was pretreated with LDLR^ecto (FIG. 2D).

[2] = target: T2, ALK1-fragment crystallizable region (Fc), wild type ALK1 ectodomain (human, UniProt P37023 22-118); experiment: ApoB100 peptide array, fluorescence
T2 construct: also called ALK1-Fc; ALK1^ecto-Fc; not shown: Fc tag
Method: FIG. 6 depicts mapping of ALK1 binding to ApoB100- In order to identify binding sites that mediate the interaction of ALK1 with the core LDL protein, Apo B100, peptide mapping experiments were performed. 4,563 different peptides (15 AA in length overlapped by 14AA) derived from the human ApoB100 sequence were arrayed and incubated with a control-Fc, and ALK1-Fc and binding events measurement by fluorescence. […] The AA sequence of binding for site 1 is SEQ ID NO: 4 QDDCTGDED, site 4 is SEQ ID NO: 5 […] and site 5 is SEQ ID NO: 6 HRDFSAEYEED.

[3] = target: T2, ALK1-fragment crystallizable region …; experiment: fluorescence polarization (Fp), recombinant ALK1-Fc and fluorescein labelled peptide
Description: FIG. 8 depicts development of a fluorescence polarization (Fp) assay of ALK1 binding to ApoB100 peptide Site 1. In order to measure binding affinities of ApoB100 to ALK1 and to facilitate screening molecules that block this interaction, a Fp assay was developed using recombinant ALK1-Fc and an HPLC purified fluorescein labelled peptide, -SEQ ID NO: 8 […] with G being an N-terminal linker to fluorescein and the C-terminal L amidated.

[4] = target: T2, ALK1-fragment crystallizable region …; experiment: substitution analysis of the 15mer peptide
Description: FIG. 7 depicts structure function analysis of Site 1. Site 1 was interrogated as a major N-terminal binding site for ALK1 on ApoB 100.

T2 sequence (P37023 22-118): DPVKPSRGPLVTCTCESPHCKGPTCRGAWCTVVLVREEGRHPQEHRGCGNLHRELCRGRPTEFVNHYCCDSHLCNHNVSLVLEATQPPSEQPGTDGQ
T1 sequence (P04114 28-4563 limits assumed): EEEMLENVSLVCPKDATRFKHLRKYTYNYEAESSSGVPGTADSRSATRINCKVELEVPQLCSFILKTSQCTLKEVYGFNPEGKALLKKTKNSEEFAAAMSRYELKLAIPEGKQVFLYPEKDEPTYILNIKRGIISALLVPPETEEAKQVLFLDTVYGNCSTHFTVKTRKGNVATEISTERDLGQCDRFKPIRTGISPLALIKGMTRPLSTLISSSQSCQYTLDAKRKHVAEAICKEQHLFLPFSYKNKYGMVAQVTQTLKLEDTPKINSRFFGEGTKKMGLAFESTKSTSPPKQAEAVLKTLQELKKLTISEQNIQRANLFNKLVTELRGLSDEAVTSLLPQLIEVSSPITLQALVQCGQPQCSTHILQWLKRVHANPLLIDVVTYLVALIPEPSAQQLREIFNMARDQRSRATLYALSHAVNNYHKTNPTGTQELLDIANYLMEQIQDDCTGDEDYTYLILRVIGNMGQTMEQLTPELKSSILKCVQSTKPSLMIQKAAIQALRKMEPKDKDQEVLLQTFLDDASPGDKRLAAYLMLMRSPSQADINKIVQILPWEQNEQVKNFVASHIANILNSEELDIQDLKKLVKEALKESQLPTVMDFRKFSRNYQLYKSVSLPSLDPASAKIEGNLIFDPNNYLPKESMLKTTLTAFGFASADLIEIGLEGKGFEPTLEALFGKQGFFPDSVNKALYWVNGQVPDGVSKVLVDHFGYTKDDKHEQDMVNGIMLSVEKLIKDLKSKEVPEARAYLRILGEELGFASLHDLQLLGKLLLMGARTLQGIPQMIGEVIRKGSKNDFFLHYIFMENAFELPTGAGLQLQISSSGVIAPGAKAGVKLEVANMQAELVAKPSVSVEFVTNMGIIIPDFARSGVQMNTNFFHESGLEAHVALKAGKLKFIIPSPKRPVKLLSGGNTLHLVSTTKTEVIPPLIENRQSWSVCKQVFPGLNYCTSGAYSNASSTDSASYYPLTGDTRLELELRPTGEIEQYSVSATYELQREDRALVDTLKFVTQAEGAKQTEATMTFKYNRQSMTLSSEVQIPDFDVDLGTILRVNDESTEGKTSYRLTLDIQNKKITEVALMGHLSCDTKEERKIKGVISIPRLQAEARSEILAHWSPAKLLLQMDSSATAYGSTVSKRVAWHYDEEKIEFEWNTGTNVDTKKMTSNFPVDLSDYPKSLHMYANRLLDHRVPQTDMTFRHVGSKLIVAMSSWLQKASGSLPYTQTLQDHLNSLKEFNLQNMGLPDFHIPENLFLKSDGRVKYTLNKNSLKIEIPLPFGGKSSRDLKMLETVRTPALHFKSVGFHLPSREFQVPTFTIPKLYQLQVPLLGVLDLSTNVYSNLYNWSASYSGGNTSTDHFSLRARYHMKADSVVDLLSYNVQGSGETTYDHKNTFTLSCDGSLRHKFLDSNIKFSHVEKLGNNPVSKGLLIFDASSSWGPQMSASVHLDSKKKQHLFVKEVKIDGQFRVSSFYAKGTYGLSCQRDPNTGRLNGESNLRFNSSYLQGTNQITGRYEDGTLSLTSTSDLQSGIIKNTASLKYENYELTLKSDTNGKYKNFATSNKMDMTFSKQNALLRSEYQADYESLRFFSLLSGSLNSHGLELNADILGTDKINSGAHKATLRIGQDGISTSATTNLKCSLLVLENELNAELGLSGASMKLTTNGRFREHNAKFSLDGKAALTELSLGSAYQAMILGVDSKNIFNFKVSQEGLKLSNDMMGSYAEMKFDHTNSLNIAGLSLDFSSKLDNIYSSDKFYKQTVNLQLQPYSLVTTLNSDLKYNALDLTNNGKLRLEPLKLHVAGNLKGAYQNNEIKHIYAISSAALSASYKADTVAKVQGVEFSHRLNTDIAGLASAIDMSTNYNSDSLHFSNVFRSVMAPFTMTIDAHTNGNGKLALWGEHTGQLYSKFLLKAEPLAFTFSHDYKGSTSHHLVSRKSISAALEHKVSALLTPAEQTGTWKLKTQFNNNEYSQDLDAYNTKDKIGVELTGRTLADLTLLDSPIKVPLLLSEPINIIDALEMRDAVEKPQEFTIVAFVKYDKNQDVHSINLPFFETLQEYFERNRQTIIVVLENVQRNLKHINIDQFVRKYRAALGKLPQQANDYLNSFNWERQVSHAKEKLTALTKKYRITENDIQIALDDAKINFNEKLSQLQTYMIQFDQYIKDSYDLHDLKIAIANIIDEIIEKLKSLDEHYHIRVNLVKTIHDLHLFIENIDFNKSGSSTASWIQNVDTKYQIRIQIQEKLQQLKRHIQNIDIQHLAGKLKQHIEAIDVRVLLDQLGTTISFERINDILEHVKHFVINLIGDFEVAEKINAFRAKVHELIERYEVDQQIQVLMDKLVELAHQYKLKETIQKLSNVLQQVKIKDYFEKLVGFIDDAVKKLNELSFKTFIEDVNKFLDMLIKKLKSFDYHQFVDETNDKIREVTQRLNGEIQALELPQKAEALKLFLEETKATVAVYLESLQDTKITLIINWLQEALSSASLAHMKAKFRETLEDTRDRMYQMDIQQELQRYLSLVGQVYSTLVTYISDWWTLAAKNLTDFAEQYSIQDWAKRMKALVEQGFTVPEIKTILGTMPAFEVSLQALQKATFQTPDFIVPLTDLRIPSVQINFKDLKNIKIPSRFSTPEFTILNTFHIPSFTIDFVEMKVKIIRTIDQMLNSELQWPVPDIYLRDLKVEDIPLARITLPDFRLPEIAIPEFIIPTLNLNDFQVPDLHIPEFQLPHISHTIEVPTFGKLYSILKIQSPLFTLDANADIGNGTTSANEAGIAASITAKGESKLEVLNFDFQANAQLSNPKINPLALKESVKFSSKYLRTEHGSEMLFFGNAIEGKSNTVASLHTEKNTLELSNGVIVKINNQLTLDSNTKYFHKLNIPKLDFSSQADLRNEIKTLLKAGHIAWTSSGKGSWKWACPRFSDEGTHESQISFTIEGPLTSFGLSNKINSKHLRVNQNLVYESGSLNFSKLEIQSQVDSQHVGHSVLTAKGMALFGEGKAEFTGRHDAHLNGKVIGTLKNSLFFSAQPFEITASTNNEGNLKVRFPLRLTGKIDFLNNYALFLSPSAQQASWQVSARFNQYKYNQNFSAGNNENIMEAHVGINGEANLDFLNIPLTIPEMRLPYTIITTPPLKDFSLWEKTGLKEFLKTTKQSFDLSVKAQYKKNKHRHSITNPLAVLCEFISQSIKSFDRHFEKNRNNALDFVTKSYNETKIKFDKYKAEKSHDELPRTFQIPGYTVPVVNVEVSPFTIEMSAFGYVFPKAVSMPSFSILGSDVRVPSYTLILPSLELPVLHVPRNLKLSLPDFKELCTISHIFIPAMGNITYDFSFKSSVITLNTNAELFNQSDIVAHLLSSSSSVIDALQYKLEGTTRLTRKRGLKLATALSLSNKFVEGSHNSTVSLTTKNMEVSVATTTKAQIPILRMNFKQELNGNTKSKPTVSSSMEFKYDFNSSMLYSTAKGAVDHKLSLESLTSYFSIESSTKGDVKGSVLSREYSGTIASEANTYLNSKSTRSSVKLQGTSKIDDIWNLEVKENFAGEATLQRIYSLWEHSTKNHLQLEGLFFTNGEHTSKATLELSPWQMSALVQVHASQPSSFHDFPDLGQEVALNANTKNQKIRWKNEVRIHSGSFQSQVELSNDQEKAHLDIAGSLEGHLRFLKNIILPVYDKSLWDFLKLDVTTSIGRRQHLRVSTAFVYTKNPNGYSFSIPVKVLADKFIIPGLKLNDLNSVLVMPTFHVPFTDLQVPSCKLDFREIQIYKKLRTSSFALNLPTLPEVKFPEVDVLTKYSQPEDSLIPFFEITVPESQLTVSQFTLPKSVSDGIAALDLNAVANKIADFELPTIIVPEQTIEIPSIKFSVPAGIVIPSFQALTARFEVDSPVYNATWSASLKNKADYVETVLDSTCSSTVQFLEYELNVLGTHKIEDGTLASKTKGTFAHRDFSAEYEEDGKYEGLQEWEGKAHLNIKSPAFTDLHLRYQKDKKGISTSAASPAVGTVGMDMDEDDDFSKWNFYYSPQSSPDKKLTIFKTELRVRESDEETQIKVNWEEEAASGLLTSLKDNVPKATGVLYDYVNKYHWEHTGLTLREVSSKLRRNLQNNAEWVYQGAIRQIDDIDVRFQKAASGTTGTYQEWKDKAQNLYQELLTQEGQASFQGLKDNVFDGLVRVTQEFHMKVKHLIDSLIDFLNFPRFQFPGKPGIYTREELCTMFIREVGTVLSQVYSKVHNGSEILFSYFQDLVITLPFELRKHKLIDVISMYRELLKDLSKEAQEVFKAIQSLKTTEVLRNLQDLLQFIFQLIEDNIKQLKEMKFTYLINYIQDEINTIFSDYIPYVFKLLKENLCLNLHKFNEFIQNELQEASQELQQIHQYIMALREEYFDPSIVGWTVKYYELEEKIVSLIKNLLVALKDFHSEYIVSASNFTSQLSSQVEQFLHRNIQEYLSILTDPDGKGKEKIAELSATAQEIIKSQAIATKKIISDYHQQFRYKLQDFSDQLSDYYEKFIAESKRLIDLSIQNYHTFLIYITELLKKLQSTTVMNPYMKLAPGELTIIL

Binder | binding result [2] | further results
Fc-tagged ectodomain of LDLR (Fc fusion, not shown: a dimerising Fc or GST, extracellular domain; also called LDLR^ecto) not shown | – | Kd [1]: 7 nM
HRDFSAEYEED (also called HRDFSAEYEED) [ApoB100 Site 5] | binds | –
RKRGLKLAT [ApoB100 Site 4] | binds | –
QDDCTGDED (also called QDDCTGDED) [ApoB100 Site 1] | binds | –
fluorescein-GQDDCTGDEDYTYLIL-NH2 (also called HPLC purified fluorescein labelled peptide) [fluorescein labelled ApoB100 peptide Site 1, GQDDCTGDEDYTYLIL] | – | Kd [3]: 2450 nM
EQIQDDCTGDEDYTY [ApoB100 Site 1 15mer peptide EQIQDDCTGDEDYTY] | – | binding result [4]: binds
